The target in assay [1] is T1, human CD19 antigen (Homo sapiens, UniProt P15391).
Another assay has as its target T2, anti-CD20 Nb1 (Bactrian camel).
T2 construct: nanobody selected from a Bactrian camel naive phage display library; In SPR it was captured by an anti-human IgG (Fc) antibody; also called anti-CD20 nanobody; source: cloned into the pCZN1 vector, expressed and purified
The assay can be described thus: SPR; Biacore T200; nanobody captured by immobilised mouse anti-human IgG (Fc) antibody; human CD19/CD20 antigen injected in 7 serial twofold dilutions from 10 µg/ml, 30 µl/min, association 120 s, dissociation 300 s. Conditions: both partners purified.

The target of assay [2] is T1, human CD19 antigen. Described as above. The settings on record: both partners purified.

No end group written: not given here.

T1 sequence (P15391 20-291): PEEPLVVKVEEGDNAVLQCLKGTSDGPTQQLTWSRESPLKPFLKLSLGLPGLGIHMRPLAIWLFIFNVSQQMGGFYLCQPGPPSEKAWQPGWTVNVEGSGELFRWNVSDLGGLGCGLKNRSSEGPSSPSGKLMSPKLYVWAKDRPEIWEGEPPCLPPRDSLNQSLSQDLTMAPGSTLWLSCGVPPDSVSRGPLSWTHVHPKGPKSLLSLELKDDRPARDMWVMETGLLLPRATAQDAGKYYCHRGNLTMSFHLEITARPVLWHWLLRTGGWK

B1: Anti-CD19 Nb2 (VHH)
VHH: QVQLQESGGGSVQTGGSLRLSCAASGFSYTGHHMGWFRQVAAQEREWVGSIYTDPGTTFYADSVKGRFTISQDVAKKMVYLQMNNLKPTDTGIYFCAAEPVADGPPLMSRDRCFGSWGQGTQVTVSS
In the case of B1, the binding result with human CD19 antigen [1] is reported as “binds”.

B2: Anti-CD19 Nb3 (VHH)
VHH: QVQLQESGGGSVQGGGSLRLSCAVSGATYMIQYMGWFRQAPGKEREGVAVIHSDDRTTYADSVKGRFTISQDNANHTLYLQMNSLKPEDTGMYVCASSLSKGGYYRGDLVPGQFTYWGRGTQVTVSS
For the molecule B2, in the assay with human CD19 antigen [1], the binding result is “binds”.

B3: human CD20 antigen (natural protein)
chain: KISHFLKMESLNFIRAHTPYINIYNCEPANPSEKNSPSTQYCYSIQS
modifications: cysteine pairing not given here; also: biotinylated for panning, position not given here
Turning to B3, in the assay with anti-CD20 Nb1, binding was characterised by a dissociation constant (Kd) of 147 nM.

B4: anti-CD19 Nb1 (VHH)
VHH: QVQLQESGGGSVQAGGSLRLSCAVRRPTDSRNCMAWFRQAPGEQREAVAGIDIYRTTGYAESVKGRFTISQDNAKNTLFLQMNSLKPEDSGTYYCAAARPCKYGSEWRRSASDFLYWGQGTQVTVSS
notes: nanobody selected from a Bactrian camel naive phage display library; In SPR it was captured by an anti-human IgG (Fc) antibody; also called anti-CD19 nanobody; source: cloned into the pCZN1 vector, expressed and purified
Regarding B4, the Kd in the assay with human CD19 antigen [2] turned out to be 290 nM.

The record behind these values is paper PMC8386010, “Nanobody-armed T cells endow CAR-T cells with cytotoxicity against lymphoma cells” (Cancer Cell International, 2021).
